Results reported in patent publication CN112778416A (KANGYUAN MEDICAL TECH DALIAN CO LTD, dated 2021).
Changes are numbered by the printed parent chain. Blank lines part the entries; values can stand above or below the binder they belong to.

How the values were obtained:
[1] = biological target: T1, 白介素-6 (IL-6) (UniProt P05231 30-212); assay: SPR, IL-6 amine-coupled to CM5 chip, nanobody injected
T1 construct: also called Interleukin-6; 抗原IL-6

[2] = biological target: T1, 白介素-6 (IL-6); assay: SPR, IL-6 amine-coupled to CM5 chip, polypeptide injected

- Kd [1]: 0.0423 nM
B1: 纳米抗体CNb20-2 (VHH)
VHH: QVQLVESAGGLVQPGGSLRLSCAASGRFTGGSPMGWYRQAPGKRRELVADIMGRGGSNTYADSVKGRFTISRDNAKNTVYLQMNSLKPEDTAVYYCAEAERVSGLLLEVVAEPRGDDYWGQGTQVTVSS

- Kd [2]: 0.0807 nM
- koff [2]: 0.000184 s⁻¹
B2: 人源化二价多肽hbvCNb20-1 (VHH)
chain: EVQLVESGGGSVQAGGSLRLSCAASSGILEIFNAMSWFRQAPGKEREWVSAIMGSPYGSTEYYADSVKGRFTFSQDNAKNTVYLQMDSLRPEDTATYYCHSAGYDPRGDDYWGQGTLVTVSSGGGGSGGGGSGGGGSEVQLVESGGGSVQAGGSLRLSCAASSGILEIFNAMSWFRQAPGKEREWVSAIMGSPYGSTEYYADSVKGRFTFSQDNAKNTVYLQMDSLRPEDTATYYCHSAGYDPRGDDYWGQGTLVTVSS

- Kd [1]: 0.0111 nM
B3: 纳米抗体CNb20-1 (VHH)
VHH: QVQLQESGGGSVQAGGSLRLSCAASSGILEIFNAMAWFRQAPGKEREWVARIMGSPYGSTEYYADSVKGRFTFSQDNAKNTVYLQMDSLEPEDTATYYCHSAGYDPRGDDYWGQGTQVTVSS

- Kd [1]: 0.0995 nM
B4: 人源化纳米抗体hCNb20-1 (VHH)
VHH: B3 VHH with Q1E, Q5V, A36S, A50S, R51A, E90R, Q117L
notes: Humanised variant of CNb20-1, purified on Ni Sepharose
